Assay results taken from patent US20050070001A1, “Xylosyltransferase and isoforms thereof” (priority 1999, published 2005).

Molecular target: T1, XT-II (Homo sapiens, UniProt Q9H1B5, R305T)
T1 construct: polyhistidine leader of vector pcDNA4/HisMax-TOPO (own knowledge of the vector); made in house; host or cells: CHO-K1, transient transfection with pCG226-XT-II; medium treated with anti-Xpress antibody and protein G agarose beads
T1 sequence (Q9H1B5 46-865 R305T): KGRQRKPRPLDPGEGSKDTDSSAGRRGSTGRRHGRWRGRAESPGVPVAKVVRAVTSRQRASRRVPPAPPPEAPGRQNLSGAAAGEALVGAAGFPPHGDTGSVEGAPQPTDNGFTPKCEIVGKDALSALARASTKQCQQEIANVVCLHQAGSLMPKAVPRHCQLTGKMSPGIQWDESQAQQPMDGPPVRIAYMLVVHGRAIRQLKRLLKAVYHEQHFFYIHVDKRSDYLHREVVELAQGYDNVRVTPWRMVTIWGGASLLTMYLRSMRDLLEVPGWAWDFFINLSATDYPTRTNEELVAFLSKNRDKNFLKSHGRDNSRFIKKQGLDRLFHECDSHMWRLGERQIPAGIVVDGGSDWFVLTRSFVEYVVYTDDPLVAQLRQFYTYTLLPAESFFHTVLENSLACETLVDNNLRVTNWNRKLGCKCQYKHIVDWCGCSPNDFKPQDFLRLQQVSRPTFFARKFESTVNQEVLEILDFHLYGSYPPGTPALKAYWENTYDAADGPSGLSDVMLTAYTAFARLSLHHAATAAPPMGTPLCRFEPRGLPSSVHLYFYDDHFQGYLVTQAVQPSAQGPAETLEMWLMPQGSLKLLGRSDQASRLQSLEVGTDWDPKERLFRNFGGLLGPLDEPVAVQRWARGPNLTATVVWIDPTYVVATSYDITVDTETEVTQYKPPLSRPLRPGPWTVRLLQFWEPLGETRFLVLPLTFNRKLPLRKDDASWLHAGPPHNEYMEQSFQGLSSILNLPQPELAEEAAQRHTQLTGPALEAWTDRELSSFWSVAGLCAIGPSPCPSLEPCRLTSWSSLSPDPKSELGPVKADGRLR
Experiment: XT activity assay of XT-II fused to aminoterminal peptide tag, expressed in CHO-K1 cells
Format: biochemical
Excerpt: The degenerate primers PFF-sense and Lysc-inv1 which were designed upon the amino acid sequence of proteolytic cleaved peptides of human XT-I were used in a PCR reaction with first strand cDNA of placenta poly(A)^+ mRNA as template. […] To clone the complete coding sequence of the novel cDNA, the RACE strategy was employed. The cDNA finally obtained was 3608 bp (FIG. 8A) and contained a single open reading frame encoding a protein of 865 amino acids with a molecular mass of 97.000. The 3′-untranslated region is 850 bp and a 5′-untranslated region of 149 bp was identified with an in-frame stop codon upstream of the ATG codon. […] No detectable XT activity was recovered by the affinity purification from a control transfection sample. The substrate specificity of the recombinant XT-I was similar to that of the XT-I isolated from human body fluids and cell culture supernatants.
Determination of XT activity. Determination of XT activity is based on the incorporation of [14C]-D-xylose into the recombinant bikunin according to a previously described method (Brinkmann et al., 1997, J. Biol. Chem., 272, 11171-11175). For analysis of the substrate specificity of the recombinant xylosyltransferases synthetic peptides containing the XT recognition sequence were used as acceptor. […] Incorporated radioactivity was determined by liquid scintillation counting. […]

enzymatic transfer of xylose to the acceptor peptides: no enzymatic transfer of xylose
B1: XT-II: human xylosyltransferase isoform 2, 865 amino acids, FIG. 8B (protein, UniProt Q9H1B5 1-865, looked up)
chain: MVASARVQKLVRRYKLAIATALAILLLQGLVVWSFSGLEEDEAGEKGRQRKPRPLDPGEGSKDTDSSAGRRGSTGRRHGRWRGRAESPGVPVAKVVRAVTSRQRASRRVPPAPPPEAPGRQNLSGAAAGEALVGAAGFPPHGDTGSVEGAPQPTDNGFTPKCEIVGKDALSALARASTKQCQQEIANVVCLHQAGSLMPKAVPRHCQLTGKMSPGIQWDESQAQQPMDGPPVRIAYMLVVHGRAIRQLKRLLKAVYHEQHFFYIHVDKRSDYLHREVVELAQGYDNVRVTPWRMVTIWGGASLLRMYLRSMRDLLEVPGWAWDFFINLSATDYPTRTNEELVAFLSKNRDKNFLKSHGRDNSRFIKKQGLDRLFHECDSHMWRLGERQIPAGIVVDGGSDWFVLTRSFVEYVVYTDDPLVAQLRQFYTYTLLPAESFFHTVLENSLACETLVDNNLRVTNWNRKLGCKCQYKHIVDWCGCSPNDFKPQDFLRLQQVSRPTFFARKFESTVNQEVLEILDFHLYGSYPPGTPALKAYWENTYDAADGPSGLSDVMLTAYTAFARLSLHHAATAAPPMGTPLCRFEPRGLPSSVHLYFYDDHFQGYLVTQAVQPSAQGPAETLEMWLMPQGSLKLLGRSDQASRLQSLEVGTDWDPKERLFRNFGGLLGPLDEPVAVQRWARGPNLTATVVWIDPTYVVATSYDITVDTETEVTQYKPPLSRPLRPGPWTVRLLQFWEPLGETRFLVLPLTFNRKLPLRKDDASWLHAGPPHNEYMEQSFQGLSSILNLPQPELAEEAAQRHTQLTGPALEAWTDRELSSFWSVAGLCAIGPSPCPSLEPCRLTSWSSLSPDPKSELGPVKADGRLR
modifications: full-length
